Results: a protein production outcome set (Wang et al. 2014)

Experiment: label from the status in PepcDB records
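Note: failed if final PepcDB status was selected cloned or expressed and not failed if soluble or beyond.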

## MVFIWSLIFIVILSVVFTTNIKKNYKGWYALASFISILVSIYEVMRIVSHPKLNGVILSIEQAFMKGNVAIAFFILVMFAGALSTKQVIGKKLMSIRAELAILGSILILPHGIIYFVRFLIIKLPKILNGKANATLYLIYISIGIIAFIIMIPLFITSFKSVRKRLGGFRWKKLHRWSYVFYCLIYLHIILALLNGKINFIKIILYTFIFMVYTVMKFIKHRNIKLRRKS
  protein production: failed

## MVFNLVVNIIGIVVFIAIAYLFSKQKHAINWRSVGVMLVLEVLLAWFLTGSQVGVDAVKAAADGFTWLVNVSYDGIAFALASWVNVKSMDFVTSSLLPILLIVPLFDILTYIGVLPWIIKWVGRGLAYITGQPKFESFFVVEMMFLGNTEALAVSQLQLKQMKAQRNLTIAMMSMSCVTASILGAYIKMMPGQFILTAVPMNVLNAAIIAAILNPVEVKPEEDTIAKISGSAAVEETTATTETSGSEELANEQVKEAKPAREPFFSFLGDSILGAGRLILIIAANVIAFVALAKLIDKLLGLINSNLSLENIFGVVMFPFAWLLGFNPSDAFQMASYMGTKLVTNEFVVMGEVSSKVNDFAPHFRAVLTVFLTSFANFSTIGMIIGAFKGIVDREKNDLISRNVGYMLLSGILVSLLSAGVVGLFVW
  protein production: failed

## MVGEVVLVNAYKKFFREYFNFKGKTSRLDFWYVILSLLILSIIPTAILSYLIFGSLMSISGGGNVQEIMEITFLNIPIFIIGIIYLFLFVPVITMTVRRWRDVGLRASGIILIFCLLVLIVILGFIIHLKQNIIIDFLIVISSSMFLITLMPSQICCTNSKNRISQFFFCSKGER
  protein production: failed

## MVGIYIGSTAAAAGKNLACMALGLVLGRDGRSVGYMKPYGQRPRMVDDRTGDIDAMLVQEVLGQNADPEVVTPVVEPANIRAMSLRGGNALERVGAAYTALARGRDVMLVGGTGSLFHTGRARGLDGLALVRRLDLRVVLVERYHPHPEGGGIDHDAILYAADVLGDRLAGVLLNDLPESYQRDAEEVLVPYLAEHGVRVLGLVPHDPLLHAIRASDLAVRLGGRLVCGGKGSQRLVEGFLIGTMQVENFMSHFRRHANTATIVGGDRTDLQLVALEGQCPCLVLTGNMPPDELIRQRSEQHGAPVIVVREDTYTVARKMEEILNSQKLRDLVTIRRGADIVAGALDRAALLAQTGIPKGENR
  protein production: failed

## MVGLLVEDTIDDQGWNRKAYEGLLNIHSNLDVDVVLEEGVNSEQKAHRRIKELVDGGVNLIFGHGHAFAEYFSTIHNQYPDVHFVSFNGEVKGENITSLHFEGYAMGYFGGMVAASMSETHKVGVIAAFPWQPEVEGFVDGAKYMNESEAFVRYVGEWTDADKALELFQELQKEQVDVFYPAGDGYHVPVVEAIKDQGDFAIGYVGDQADLGGSTILTSTVQHVDDLYVLVAKRFQEGKLESGNLYYDFQDGVVSLGEFSSVVPDEVREQITDAISTYIQTGQFPHEEER
  protein production: not failed

## MVGLVACSKQSANQQISYRQTAEATLDKGMDNQPEAPYWFPKQLLKWQLSKDKAAKYNTASVPLAKRIDKWQLPTVNKTQDPKMKVVALSIMNSSTSGNAPRGINTFDANVFSNWQYIDQLVYWGGSAGEGLIVPPTADVIDSAHKNGVPVLGTVFFPQVVSGGKLKWLNDFLKQDADGHFPMADKLVAVAKAYGFDGWFINQETDPEVKSFDSASTGKTATSSTSNGLSKKHAQLMQQLIKEYKQKAGSKLDLMWYDSMTKDGKMDWQNALTKENQSYLVDANMKPVADSMFLNFWWTKKRLASQELLKKSHERAEKLGISPYNLFAGIDVQADGTATPVRWNLFANKQHVPYTSLGLYAPDWTHASSDTVDEFQAKEGALWVNDQNDPSRLEHHHHHH
  protein production: not failed

## MVGPLGKPIKVKYYGNVVFASDAVCGQAENYATLKAMKEVGNYTISIQTFENAENVYPEEFLAKPVADEHYLTTEDGSVGIKGHYLDIVKELIEKDKVDIIFAGGKLGSLAKLAELTRPYGIPTYATVRQIMVDGLEHHHHHH
  protein production: not failed

## MVGSVYTLFLYFSIILGVIVGVRTRSFHSSLAVLVFSSTFVAGIKYNNSYIAIISWLALSTLSSYLFHLNVIIKSRKDESVSNVLMGYLLGFFILLTLKLHGAGWILSILASYWVFYILLMFDYSKNRRAYYLLKTLWIIFSWGALIEAFGLQKELLPFLVVYTLIFILWFKRQEYSPT
  protein production: failed

## MVGTFLGTGASSGVPMLNCSCKVCTSSYSKNKRLRSSFFLESSSGIKLLIDTGPDIRQQLLREKIDRLDLVLYTHEHYDHIMGFDDIKFYTRCAPLNIYARDTAMAHIRNAFPYNFTSKPSLSGKADIIANVIRDFEPFFFKSLKIVPIPLIHGDIISLGYRVGNLAYLTDVKFIPEASYDYLKNLDLLIIDAMRIKPHPAHLNFSEAFCVIKKINPKISYFTHIAHDIMHEEFDYLEKDNIYLAYDGLKIYILEHHHHHH
  protein production: failed

## MVHETDKDPAPAVGPLASAMPRGNFAASLRSPGAKFLMIGFISLVLLVPLLLVWGLTEERASRAREVSARIANGWGGDQVVNGPYLAVPFDVERRREVDGRTIVDRTTEWALVMPETLQVTADLKTEEKKLSIYSLPVYNGALVLKGRFGQGVLQDLARFAGTPRLDNAILVLSIGDITGIRSSAGVRINGGAVLPFDPGMRDMSVIASRALENNSIRSDAGVHRQIDRNLIESGFDFDIAFSLNGSGSFAVAPAGQTTSFTAKADWPHPGFEGLFLPEVKTVTAADFNASWTIPYLARGIDRVVEGPRLPLSNSLMTINLVEPVKFYQVIARTLKYSIGFISLVFLAVFIVELKGGSVVHWIQYVLTGLALIVFYVLLLALAEHTGFTVAYAAASFSTAALIAFYLGSATRSRRNGLALFSVLAVAYGVMYLVLNEDEYALLAGAVISFIAIAATMFATRKVDWSGAGTAANSEFSSRT
  protein production: failed

## MVHGLDRRLGLAGRIRPDALVADRCGTLIMLAGERFYRLDPMSGRLERIPCLGGRGDRAGELSGPRAMALGSRNLYVADTDNNRVCVFATVNWQVRRFIGAENPAGEPAAGTGPGEFDRPLDLAVDPCDNLYVLDAGNRRIQRFDYHGEPVPHVPPFGADRLKQPVALALGPAPSPSGGGALVHCLDTGLTAIVTFDDQGRFLGTVGLDDLGFEPAGLAVDADGKWYVSDRERFIYAIRSAGDWSPLEEYEGKALRLFAGPGGEFYALEDGEVARLTRRRRYPPAGSWTGSGPVTGIYTSRSFDTGDGRLFWHRVTLDATVPPKTQVRLSYFIYETGRDPELLPADGEWRSFPSNPADALFERKEGRYLRVRLELISEDRHATPTVVSLRLQFPKQSYLRYLPAVFQDDERGRDFLERFLSLFESVLYDLEREIFTTRRYADPCAVPAGFLPWLASWLALPDADQWLEDGGARLRTLIARANELYRCRGTRGGLAELITLYTGKEPWIVEAFQLDRIRGRSEWRETMRLFGEDPYHFTVLLPPGGAGRTETVKRIVARERPAHTCATVVALENLFRLGGHTYLEVNTNLNQPLFALETSSSLARQTYLADGEKAGQAQVRARQGMDTLFE
  protein production: failed

## MVHHGQMHAQPGVGLRPDTPVASGQLPSTSIRSRRSGISKAQRETWERLWPELGLLALPQSPRGTPVDTRAWFGRDAPVVLEIGSGSGTSTLAMAKAEPHVDVIAVDVYRRGLAQLLCAIDKVGSDGINIRLILGNAVDVLQHLIAPDSLCGVRVFFPDPWPKARHHKRRLLQPATMALIADRLVPSGVLHAATDHPGYAEHIAAAGDAEPRLVRVDPDTELLPISVVRPATKYERKAQLGGGAVIELLWKKHGCSERDLKIR
  protein production: failed

## MVHMGYKITDKRDLSPIDFFVEVEAPHIAKAWKPGQFVIFILHERGERVPMSVYKAENGRIGMFIRKLGKTSLQLYYEFNVGDEFYSMVGPLGKPIKVKYYGNVVFASDAVCGQAENYATLKAMKEVGNYTISIQTFENAENVYPEEFLAKPVADEHYLTTEDGSVGIKGHYLDIVKELIEKDKVDIIFAGGKLGSLAKLAELTRPYGIPTYATVRQIMVDGTGMCGSCRILYDGEVKFACRDGPVFDAHKVDWEDVLRRANRFLEQERLAKERYLEYLRKKGVI
  protein production: failed

## MVHQSEMENYNIGQASIEEVSDPAYKGAKIVVIGVGGGGSNMIKHLVEYGVHQDVTPIATNTDGQHLKNNPAPVKILLGKESTGGLGAGGIPDIGRKAAEESANEIKEAIKDAKLVIISTGLGGGTGTGATPTIVKIAKEVGALTIAIVTKPFKYEGNQKRKRAEEGLKELEQSSDSILVIPNDKILLTMKKNASTTECYREVDDVLVRAVSGISTIITKPGNINVDFADLKSALGFKGFALMGIGEATGEESAKLAVQNAIQSPLLDDASIEGAKSIIVFFEHHPDYPMMAYSQACDFIQDQAHQDVDVKFGQHTSDNIPIDHVRVTIIATGAERNSGGASLESIATPSQPVVKQTRKVGNGEYLKIPTEEELSIPTTMRIQQD
  protein production: failed

## MVIGLIATLYRPKEATLYVLLYLLLGAIGLPVFSGGNGGLHTFIGQTGGFLLFFPLRALVTSLIANRKKILIQIFIANFLGEVVLFIGGAIGFIIFTHSLILTTLKLVVLPFVLPDLIKITLTTLFSLLLLKALQSQSYFKIEK
  protein production: failed

## MVINLNDKQTKTSKEGLISVSHPLAAKIGKDVLDQGGNAMDAVIAIQLALNVVEPFASGIGGGGYLLYYEQSTGSITAFDARETAPEHVDKQFYLDDSGEYKSFFDMTTHGKTVAVPAIPKLFDYIHKRYAKLSLEDLINPAIELAIEGHAANWATEKYSRQQHARLTKYHETAQVFTHENQYWREGDWIVQPELGKTFQILREQGFNAFYKGDIAKQLVNVVKACGGTITLEDLAKYDIQIKAPISATFKDYDIYSMGPSSSGGITVIQILKLLEHVDLPSMGPRSVDYLHHLIQAMHLAYSDRAQYLADDNFHEVPVQSLIDDDYLKARSTLIDSNKANIDIEHGVVSDCISHTDVEENHTETTHFCVIDKEGNIASFTTSIGMIYGSGITIPGYGVLLNTTMDGFDVVDGGINEIAPYKRPLSNMAPTIVMYHGKPILTVGAPGAISIIASVAQTLINVLVFGMDIQQAIDEPRIYSSHPNRIEWEPQFSQSTILALIAHGHAMEHKPDAYIGDVHGLQVDPTTYEASGGSDDTREGTVMGGEVLVIRKQPLPYRQMYDSDGFRLYFNDVQLPLLADQVRWMHDKYWVDESVVRIIFPEVSAHIEDLRSYENAGENYIDIAWLARKYAYQVTLKDDGLYLTDDTYTSVKRNTNAYYRYDRDSITR
  protein production: failed

## MVIPFARSVPLSPNTLTLLGFAVSVAAGVAFALGKPFEGGFLILFSGVFDILDGGVARAKGRITPFGGVLDSVCDRYSDGLMFLGIMAGAIYGRLSFAPFLGVEGWLWAGFALIGSFLVSYTRARAESAGCRKLSVGIAERTERMVILALGALSGFLGWALVLIAVFSHITMIQRVLRAKSILSSPSEPESQKP
  protein production: failed

## MVIPFISGTLCQFQLSRWLITQAPALPCGPKLGAPTRQRRGCKVAQLWMYFLALAVVYLLPGPDMILLLQTGARQGKAQALATALGLALSRGCHVALAALGLAALFKAAPWTFDLVRLAGAAYLLWIGIQCLRANLLPNLEPGTAAATPLRWREAIQRGLLTNLLNPKALLFCSVLLPQFVDPQAGAVVPQFMTLGVLLVAVGGLFDCCYALAGAGLGRWMQRSPSAQRVQQWLFGSLLIGFALRLTFVQQA
  protein production: failed

## MVIPSILEQAHALAGRAVGEGGIAVDATVGNGHDTAFLAQAVGAGGAVVGFDVQEEALVETRHRLEREALSAPVRLVHAGHQTLARHLEEAERGRVGAIMFNLGYLPGGDHSVVTRPETTRQALDAGTEALRPGGVITVVAYTGHEGGDEEADAVEAWASALPQAQFRALSYRFPNWSNDPPRLFAVEKRDALEHHHHHH
  protein production: failed

## MVIREALLYIAMLKLEIEALQREYEDLKITKKESLHQFQEVKVEKIGEMFQVKIKSPRGENNLVNILEAFEEMGLNVAQARASCLDSFAMEAIVAPQSKDKLCSVDDLTQTLVKALVKPSVPL
  protein production: failed

## MVIRVYIASSSGSTAIKKKQQDVLGFLEANKIGFEEKDIAANEENRKWMRENVPENSRPATGYPLPPQIFNESQYRGDYDAFFEARENNAVYAFLGLTAPPGSKEAEV
  protein production: not failed
